Reference: patent US20180051082A1 (ANAPTYSBIO, published 2018)
Where a chain is given by its changes, count along the chain named.

B1: APE1923 (antibody, human IgG1, V domains shown)
VH: EVQLLESGGGLVQPGGSLRLSCAASGFTFSSYTMSWVRQAPGKGLEWVSVISSGGNSAYYPDSVQGRFTISRDNSKNTLYLQMNSLRAEDTAVYYCAKEHYGTSHFAYWGQGTLVTVSS
VL: EIVLTQSPATLSLSPGERATLSCRASESVDNFGISFMSWYQQKPGQAPRLLIYAASNPGSGIPARFSGSGSGTDFTLTISSLEPEDFAVYYCQQSKEVPYTFGQGTKLEIK
notes: expressed from HEK 293 cells as human IgG1
B2: APE1924 (antibody, human IgG1, V domains shown)
VH: B1 VH with S57Y
VL: B1 VL
notes: as for B1
B3: APE2058 (antibody, human IgG1, V domains shown)
VH: EVQLLESGGGLVQPGGSLRLSCAASGFTFSSYDMSWVRQAPGKGLEWVSTISGGGSYTYYQDSVKGRFTISRDNSKNTLYLQMNSLRAEDTAVYYCASPYYAMDYWGQGTTVTVSS
VL: DIQLTQSPSFLSAYVGDRVTITCKASQDVGTAVAWYQQKPGKAPKLLIYWASTLHTGVPSRFSGSGSGTEFTLTISSLQPEDFATYYCQHYSSYPWTFGQGTKLEIK
notes: expressed from HEK 293 cells as human IgG1; also called anti-PD-1
B4: 6E9 mouse:human chimeric antibody (antibody, human IgG1, V domains shown)
VH: EVMLVESGGGLVKPGGSLKLSCAASGFTFSSYDMSWVRQTPEKRLEWVATISGGGSYTYYQDSVKGRFTISRDNAKNTLYLQMSSLRSEDTAMYYCASPYYAMDYWGQGTSVTVSS
VL: DIVMTQSHKFMSTSVGDRVSITCKASQDVGTAVAWYQQKPGQSPKLLIYWASTRHTGVPDRFTGSGSGTDFTLTISNVQSEDLADYFCQHYSSYPWTFGGGTKLEIKR
notes: also called chimeric 6E9
B5: 9A2 mouse:human chimeric antibody (antibody, human IgG1, V domains shown)
VH: DVKLVESGGGLVKPGGSLKLSCAASGFTFSSYTLSWVRQTPGKRLEWVAVISSGGDYAYYPDSVQGRFTISRDNAKNTLYLQMNSLKSEDTAMYYCSRDHYGTSHFAYWGQGTLVTVSA
VL: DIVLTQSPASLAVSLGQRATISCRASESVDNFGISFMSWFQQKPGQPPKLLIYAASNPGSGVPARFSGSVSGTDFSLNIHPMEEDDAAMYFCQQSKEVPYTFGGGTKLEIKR
notes: also called chimeric 9A2
B6: 10B11 mouse:human chimeric antibody (antibody, human IgG1, V domains shown)
VH: DVKLVESGGGLVKPGGSLKVSCAASGFTFSSYTMSWVRQTPEKRLEWVAVISSGGNSTYYPDSVKGRFTISRDNAKNTLYLQMSSLKSEDTAMYYCTREHYGSSHFAYWGQGTLVTVSA
VL: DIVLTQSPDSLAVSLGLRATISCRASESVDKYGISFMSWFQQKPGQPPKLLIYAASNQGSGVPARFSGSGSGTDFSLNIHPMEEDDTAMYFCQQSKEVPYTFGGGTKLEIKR
notes: also called chimeric 10B11
B7: APE1963 (antibody, human IgG1, V domains shown)
VH: B1 VH with H100Y, T103S
VL: B1 VL
notes: as for B1
B8: APE1922 (antibody, human IgG1, V domains shown)
VH: B1 VH with N56D
VL: B1 VL
notes: as for B1
B9: APE1950 (antibody, human IgG1, V domains shown)
VH: B1 VH with N56D, A58T
VL: B1 VL
notes: as for B1
B10: 6E9 (mouse monoclonal antibody) (antibody, V domains shown)
VH: B4 VH
VL: B4 VL
notes: Mouse hybridoma antibody
B11: 9A2 (mouse monoclonal antibody) (antibody, V domains shown)
VH: B5 VH
VL: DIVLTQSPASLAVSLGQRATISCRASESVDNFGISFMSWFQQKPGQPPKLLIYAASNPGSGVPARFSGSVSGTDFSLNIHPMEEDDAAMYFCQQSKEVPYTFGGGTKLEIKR
notes: Mouse hybridoma antibody
B12: 10B11 (mouse monoclonal antibody) (antibody, V domains shown)
VH: B6 VH
VL: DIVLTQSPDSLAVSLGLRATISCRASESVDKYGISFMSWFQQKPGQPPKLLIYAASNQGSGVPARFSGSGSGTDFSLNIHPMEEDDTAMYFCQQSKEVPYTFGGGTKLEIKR
notes: Mouse hybridoma antibody

Target: T1, monomeric soluble human PD1-Avi-His (human, UniProt Q15116 25-170)
T1 construct: extracellular domain; not shown: Avi tag and His tag at the C-terminus
T1 sequence (Q15116 25-170): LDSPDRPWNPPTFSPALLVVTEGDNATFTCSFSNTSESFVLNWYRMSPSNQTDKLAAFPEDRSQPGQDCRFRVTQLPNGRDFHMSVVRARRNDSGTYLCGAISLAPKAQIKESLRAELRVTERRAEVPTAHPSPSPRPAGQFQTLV
Assay: KINEXA 3000 solution-based affinity, PD1-Avi-His titrated against constant antibody
Description: Solution-based affinity analyses were carried out using a KINEXA™ 3000 assay (Sapidyne Instruments, Boise, Idaho), and results were analyzed using KINEXA™ Pro Software 3.2.6. Experimental parameters were selected to reach a maximum signal with antibody alone between 0.8 and 1.2 V, while limiting nonspecific binding signal with buffer alone to less than 10% of the maximum signal. Azlactone beads (50 mg) were coated with antigen by diluting in a solution of PD-1-Avi-His (50 μg/mL in 1 mL) in 50 mM Na₂CO₃. The solution was rotated at room temperature for 2 hours, and beads were pelleted in a picofuge and washed twice with blocking solution (10 mg/mL BSA, 1 M Tris-HCl, pH 8.0). Beads were resuspended in blocking solution (1 mL), rotated at room temperature for 1 hour, and diluted in 25 volumes PBS/0.02% NaN3. […] All samples were diluted in PBS, 0.2% NaN₃, 1 mg/mL BSA and allowed to equilibrate at room temperature for 30 hours. Additionally, samples containing only antibody and only buffer were tested in order to determine maximum signal and nonspecific binding signal, respectively.

| Kd | Binder |
| --- | --- |
| 1 nM | B1 |
| ~1 nM | B2 |
| 0.2 nM | B3 |

Target: T2, full-length human PD-1 on the cell surface (human, UniProt Q15116 25-288)
T2 sequence (Q15116 25-288): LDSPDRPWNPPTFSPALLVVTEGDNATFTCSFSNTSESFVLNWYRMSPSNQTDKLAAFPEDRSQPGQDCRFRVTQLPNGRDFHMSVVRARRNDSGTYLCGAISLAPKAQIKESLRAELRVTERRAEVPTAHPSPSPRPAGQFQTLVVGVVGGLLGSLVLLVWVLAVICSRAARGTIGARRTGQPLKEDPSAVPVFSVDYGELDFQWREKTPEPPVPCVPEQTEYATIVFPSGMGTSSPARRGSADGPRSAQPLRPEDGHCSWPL
Assay: cell-based or functional assay

| EC50, multiple human CD4+ T-cell MLR assays | Binder |
| --- | --- |
| 0.02 µg/mL | B3 |

Target: T2, full-length human PD-1 on the cell …
Assay: binding to PD-1 antigens as in Example 1 (format not restated)

| binding result | Binder |
| --- | --- |
| binds | B4 |
| binds | B5 |
| binds | B6 |

Target: T1, monomeric soluble human PD1-Avi-His
Assay: SPR (BIACORE T200), antibody captured on anti-human IgG, monomeric PD1-Avi-His flowed, 1:1 fit
Description: SPR analyses were carried out using a BIACORE™ T200 instrument, and kinetic constants were determined using the BIACORE™ T200 evaluation software. Experimental parameters were chosen to ensure that saturation would be reached at the highest antigen concentrations and that Rmax values would be kept under 30 RU. GE anti-Human IgG (Fc-specific, approximately 7,000 RU) was immobilized on a BIACORETM CM5 chip using EDC-activated amine coupling chemistry. Antibodies (0.5 μg/mL, 60 second capture time) were then captured using this surface. Next, monomeric soluble human PD1-Avi-His was flowed over captured antibody (300 second association, 300 second dissociation) using a three-fold serial dilution series from 500 nM to 2 nM. Captured antibody and antigen were removed between each cycle using 3 M MgCl₂ (60 second contact time) in order to ensure a fresh binding surface for each concentration of antigen. The resulting sensorgrams were fit globally using a 1:1 binding model in order to calculate on- and off-rates (kₐ and kd, respectively), as well as affinities (KD).

| Kd | koff | kon | Binder |
| --- | --- | --- | --- |
| 9 nM | 0.0017 s⁻¹ | 190000 M⁻¹ s⁻¹ | B1 |
| 17 nM | 0.001 s⁻¹ | 58000 M⁻¹ s⁻¹ | B7 |
| 15 nM | 0.0018 s⁻¹ | 130000 M⁻¹ s⁻¹ | B8 |
| 10 nM | 0.0018 s⁻¹ | 180000 M⁻¹ s⁻¹ | B2 |
| 17 nM | 0.0025 s⁻¹ | 150000 M⁻¹ s⁻¹ | B9 |
| 2 nM | 0.00064 s⁻¹ | 300000 M⁻¹ s⁻¹ | B3 |

Target: T2, full-length human PD-1 on the cell …
Assay: hybridoma screening, flow cytometry on PD-1 CHO-K1 cells (Example 1)
Description: Hybridoma supernatants from ten 96-well plates were screened for binding to a CHO-K1 cell clone stably transfected with a nucleic acid sequence encoding full length human PD-1 and compared to binding to untransfected CHO-K1 cells. Specifically, hybridoma supernatants were diluted 1:1 with PBS/2% FBS and incubated with an equal volume of PD-1 CHO-K1 cells (2.5×10⁵ cells in PBS, 2% FBS) for 30 minutes at 4° C. Cells were centrifuged, washed once with PBS/1% FBS, and incubated with APC-conjugated goat anti-mouse IgG (H+L) (Southern Biotechnology, Birmingham, Ala.) for 30 minutes at 4° C. […] Mouse IgG levels were quantified by ELISA.

| binding result | Binder |
| --- | --- |
| binds | B10 |
| binds | B11 |
| binds | B12 |
